Data published in paper PMC12859064.
Each block holds one molecule with its values, some of them ahead of it.

Molecular target: Flag-Axin1 (mouse)
Assay: SPR; BIAcore 8K, CM5 chip; Flag-Axin1 immobilised by amine coupling (20 μg/mL, sodium acetate pH 4.5); analytes 25-400 nM, 30 μL/min, 120 s association, 300 s dissociation; step of the Axin1 self-association not told

Kd: 147 nM
Molecule: Flag-Axin1 (natural protein)

Kd: 37.8 nM
B1: Flag-TRIM15 (natural protein)
chain: MPATPSLKVVHELPACTLCAGPLEDAVTIPCGHTFCRLCLPALSQMGAQSSGKILLCPLCQEEEQAETPMAPVPLGPLGETYCEEHGEKIYFFCENDAEFLCVFCREGPTHQAHTVGFLDEAIQPYRDRLRSRLEALSTERDEIEDVKCQEDQKLQVLLTQIESKKHQVETAFERLQQELEQQRCLLLARLRELEQQIWKERDEYITKVSEEVTRLGAQVKELEEKCQQPASELLQDVRVNQSRCEMKTFVSPEAISPDLVKKIRDFHRKILTLPEMMRMFSENLAHHLEIDSGVITLDPQTASRSLVLSEDRKSVRYTRQKKSLPDSPLRFDGLPAVLGFPGFSSGRHRWQVDLQLGDGGGCTVGVAGEGVRRKGEMGLSAEDGVWAVIISHQQCWASTSPGTDLPLSEIPRGVRVALDYEAGQVTLHNAQTQEPIFTFTASFSGKVFPFFAVWKKGSCLTLKG
